According to IntAct's records for PubMed 29039417:

B1: Protein PTHB1 (Homo sapiens), Q3SYG4 (parent)
chain: MSLFKARDWWSTILGDKEEFDQGCLCLANVDNSGNGQDKIIVGSFMGYLRIFSPHPAKTGDGAQAEDLLLEVDLRDPVLQVEVGKFVSGTEMLHLAVLHSRKLCVYSVSGTLGNVEHGNQCQMKLMYEHNLQRTACNMTYGSFGGVKGRDLICIQSMDGMLMVFEQESYAFGRFLPGFLLPGPLAYSSRTDSFLTVSSCQQVESYKYQVLAFATDADKRQETEQQKLGSGKRLVVDWTLNIGEQALDICIVSFNQSASSVFVLGERNFFCLKDNGQIRFMKKLDWSPSCFLPYCSVSEGTINTLIGNHNNMLHIYQDVTLKWATQLPHIPVAVRVGCLHDLKGVIVTLSDDGHLQCSYLGTDPSLFQAPNVQSRELNYDELDVEMKELQKIIKDVNKSQGVWPMTEREDDLNVSVVVSPNFDSVSQATDVEVGTDLVPSVTVKVTLQNRVILQKAKLSVYVQPPLELTCDQFTFEFMTPDLTRTVSFSVYLKRSYTPSELEGNAVVSYSRPTDRNPDGIPRVIQCKFRLPLKLICLPGQPSKTASHKITIDTNKSPVSLLSLFPGFASQSDDDQVNVMGFHFLGGARITVLASKTSQRYRIQSEQFEDLWLITNELILRLQEYFEKQGVKDFACSFSGSIPLQEYFELIDHHFELRINGEKLEELLSERAVQFRAIQRRLLARFKDKTPAPLQHLDTLLDGTYKQVIALADAVEENQGNLFQSFTRLKSATHLVILLIALWQKLSADQVAILEAAFLPLQEDTQELGWEETVDAAISHLLKTCLSKSSKEQALNLNSQLNIPKDTSQLKKHITLLCDRLSKGGRLCLSTDAAAPQTMVMPGGCTTIPESDLEERSVEQDSTELFTNHRHLTAETPRPEVSPLQGVSE
partner: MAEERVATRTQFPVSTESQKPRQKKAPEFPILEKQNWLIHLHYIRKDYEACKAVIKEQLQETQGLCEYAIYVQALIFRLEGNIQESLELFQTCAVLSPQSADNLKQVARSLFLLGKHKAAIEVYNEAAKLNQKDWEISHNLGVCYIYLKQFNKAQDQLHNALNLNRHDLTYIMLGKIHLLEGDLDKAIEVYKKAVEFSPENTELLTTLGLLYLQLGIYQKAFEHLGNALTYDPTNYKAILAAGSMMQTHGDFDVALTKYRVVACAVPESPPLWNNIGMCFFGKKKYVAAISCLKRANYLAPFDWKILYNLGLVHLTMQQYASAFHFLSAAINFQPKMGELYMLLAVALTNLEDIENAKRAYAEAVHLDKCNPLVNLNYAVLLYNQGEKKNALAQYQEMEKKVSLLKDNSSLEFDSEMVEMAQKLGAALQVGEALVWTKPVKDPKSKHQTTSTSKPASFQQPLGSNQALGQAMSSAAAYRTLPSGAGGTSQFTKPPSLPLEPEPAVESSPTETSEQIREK

Variants of: B1
Conditions: with bbs4_human BBS4, Q96RK4

Row | Variant | effect of a mutation on the interaction
1 | W741K | with no effect
2 | T829K | with no effect
3 | K542A | with no effect
4 | K547E | with no effect
5 | Q597R | disrupting interaction strength
6 | K704A | with no effect
7 | S425A | with no effect
8 | R868E | with no effect
9 | R868K | with no effect
10 | V437K | with no effect
11 | I519A | with no effect
12 | I519K | with no effect
13 | R818T | disrupting interaction strength
14 | Q722E | with no effect
15 | Q722K | with no effect
16 | H869K | with no effect
17 | S555K | with no effect
18 | P463E | with no effect
19 | E873A | with no effect
20 | L733A | disrupting interaction strength
21 | Q835K | with no effect
22 | N719K | with no effect
23 | S667A | with no effect

Row | Variant | effect of a mutation on the interaction
24 | F864A | with no effect
25 | V522K | with no effect
26 | D830K | with no effect
27 | D830E | with no effect
28 | G502A | with no effect
29 | F721E | with no effect
30 | F756A | with no effect
31 | S880K | with no effect
32 | A567E | with no effect
33 | Q447A | with no effect
34 | R683E | with no effect
35 | D410A | with no effect
36 | L757K | with no effect
37 | Q539K | with no effect
38 | Q539E | with no effect
39 | S797K | with no effect
40 | E663A | with no effect
41 | T613E | with no effect
42 | T613A | with no effect
43 | I776A | with no effect
44 | S849A | with no effect
45 | Q602E | with no effect
46 | Q883K | with no effect

Row | Variant | effect of a mutation on the interaction
47 | Y645E | with no effect
48 | Y645A | with no effect
49 | P840S | disrupting interaction strength
50 | L665R | disrupting interaction strength
51 | G638E | with no effect
52 | S568K | with no effect
53 | T697C | disrupting interaction strength
54 | T697A | with no effect
55 | W768E | with no effect
56 | Q742A | with no effect
57 | R619A | with no effect
58 | R619K | with no effect
59 | Q748L | disrupting interaction strength
60 | A755E | with no effect
61 | T844E | with no effect
62 | L709A | with no effect
63 | L709K | with no effect
64 | V417E | with no effect
65 | S509A | with no effect
66 | S806E | with no effect
67 | I548E | with no effect
68 | D513K | with no effect
69 | S498E | with no effect

Row | Variant | effect of a mutation on the interaction
70 | S498K | with no effect
71 | Q717E | with no effect
72 | T552K | with no effect
73 | S414E | with no effect
74 | F474K | with no effect
75 | L562K | with no effect
76 | V577A | with no effect
77 | R674E | with no effect
78 | G842A | with no effect
79 | V856K | with no effect
80 | A730E | with no effect
81 | L446A | with no effect
82 | L446K | with no effect
83 | S593A | with no effect
84 | D517A | with no effect
85 | R407K | with no effect
86 | R407A | with no effect
87 | P556A | with no effect
88 | P556E | with no effect
89 | D571K | with no effect
